What is called Kd is the free concentration of one partner at which half of the binding sites on the other are occupied at equilibrium, for simple one-to-one binding.

This passage reports Kd results from article PMC11231340, “Werner helicase interacting protein 1 contributes to G-quadruplex processing in human cells”.

In data set [1] the target is T1, GST-WRNIP1 (Homo sapiens, UniProt Q96S55 1-665).
T1 sequence: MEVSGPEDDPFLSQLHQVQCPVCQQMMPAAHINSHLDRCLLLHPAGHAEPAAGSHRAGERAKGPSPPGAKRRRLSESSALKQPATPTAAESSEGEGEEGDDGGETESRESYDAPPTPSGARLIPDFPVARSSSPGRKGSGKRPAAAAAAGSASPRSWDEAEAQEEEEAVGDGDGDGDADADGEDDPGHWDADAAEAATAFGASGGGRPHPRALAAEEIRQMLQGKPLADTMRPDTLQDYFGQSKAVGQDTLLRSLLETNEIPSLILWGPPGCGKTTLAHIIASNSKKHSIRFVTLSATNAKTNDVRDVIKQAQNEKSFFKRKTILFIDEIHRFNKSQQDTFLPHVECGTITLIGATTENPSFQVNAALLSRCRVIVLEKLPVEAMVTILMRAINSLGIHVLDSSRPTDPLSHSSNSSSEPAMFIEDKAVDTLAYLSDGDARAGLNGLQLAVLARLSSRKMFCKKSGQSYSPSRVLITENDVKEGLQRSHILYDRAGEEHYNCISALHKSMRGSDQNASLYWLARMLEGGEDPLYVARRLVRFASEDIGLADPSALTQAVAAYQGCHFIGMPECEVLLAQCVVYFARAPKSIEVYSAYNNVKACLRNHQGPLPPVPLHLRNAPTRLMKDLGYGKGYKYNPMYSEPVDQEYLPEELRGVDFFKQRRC
Briefly: fluorescence anisotropy; no ATP (ATP comparison series); Hill n 0.72; Anisotropy: 10 nM DNA, 50 mM Tris-HCl pH 7.5, 90 mM KCl, 5 mM EDTA, with or without 1 mM ATP and 1.25 mM MgCl2, 25 C; EMSA: 50 nM DNA, 50 mM Tris-HCl pH 7.5, 150 mM KCl, 15 min 25 C, 6% native gel; DNA folded in 25 mM Tris-HCl pH 7.5, 50 mM KCl. Conditions: protein: recombinant; (GST fusion); label: 5' FITC; intramolecular G4 with 3' ssDNA tail of 21 nt. (In general: In fluorescence polarisation assays a small probe gives low polarisation when free and higher when bound to something large.)

The target in data set [2] is T1, GST-WRNIP1. Nature of the data set: fluorescence anisotropy; 1 mM ATP; Hill n 0.66; Anisotropy: 10 nM DNA, 50 mM Tris-HCl pH 7.5, 90 mM KCl, 5 mM EDTA, with or without 1 mM ATP and 1.25 mM MgCl2, 25 C; EMSA: 50 nM DNA, 50 mM Tris-HCl pH 7.5, 150 mM KCl, 15 min 25 C, 6% native gel; DNA folded in 25 mM Tris-HCl pH 7.5, 50 mM KCl. Conditions: protein: recombinant; (GST fusion); label: 5' FITC; intramolecular G4 with 3' ssDNA tail of 21 nt.

Data set [3] addresses T1, GST-WRNIP1. Nature of the data set: fluorescence anisotropy; Hill n 0.55; Anisotropy: 10 nM DNA, 50 mM Tris-HCl pH 7.5, 90 mM KCl, 5 mM EDTA, with or without 1 mM ATP and 1.25 mM MgCl2, 25 C; EMSA: 50 nM DNA, 50 mM Tris-HCl pH 7.5, 150 mM KCl, 15 min 25 C, 6% native gel; DNA folded in 25 mM Tris-HCl pH 7.5, 50 mM KCl. The settings on record: protein: recombinant; (GST fusion); label: 5' FITC; intramolecular G4 with 3' ssDNA tail of 21 nt.

Data set [4] deals with T1, GST-WRNIP1. Nature of the data set: fluorescence anisotropy; Hill n 0.88; Anisotropy: 10 nM DNA, 50 mM Tris-HCl pH 7.5, 90 mM KCl, 5 mM EDTA, with or without 1 mM ATP and 1.25 mM MgCl2, 25 C; EMSA: 50 nM DNA, 50 mM Tris-HCl pH 7.5, 150 mM KCl, 15 min 25 C, 6% native gel; DNA folded in 25 mM Tris-HCl pH 7.5, 50 mM KCl. The settings on record: protein: recombinant; (GST fusion); label: 5' FITC on strand 1; 21 bp duplex at 3' end of strand 1; 5' ss G4 overhang 21 nt; strand 2 5' TTT overhang.

The target in data set [5] is T1, GST-WRNIP1. Nature of the data set: fluorescence anisotropy; Hill n 0.95; Anisotropy: 10 nM DNA, 50 mM Tris-HCl pH 7.5, 90 mM KCl, 5 mM EDTA, with or without 1 mM ATP and 1.25 mM MgCl2, 25 C; EMSA: 50 nM DNA, 50 mM Tris-HCl pH 7.5, 150 mM KCl, 15 min 25 C, 6% native gel; DNA folded in 25 mM Tris-HCl pH 7.5, 50 mM KCl. Conditions: protein: recombinant; (GST fusion); label: 5' FITC; intramolecular G4 with 3' ssDNA tail.

The target of data set [6] is T1, GST-WRNIP1. Nature of the data set: fluorescence anisotropy; Hill n 1.1; Anisotropy: 10 nM DNA, 50 mM Tris-HCl pH 7.5, 90 mM KCl, 5 mM EDTA, with or without 1 mM ATP and 1.25 mM MgCl2, 25 C; EMSA: 50 nM DNA, 50 mM Tris-HCl pH 7.5, 150 mM KCl, 15 min 25 C, 6% native gel; DNA folded in 25 mM Tris-HCl pH 7.5, 50 mM KCl. The settings on record: protein: recombinant; (GST fusion); label: 5' FITC on strand 1; 21 bp duplex at 3' end of strand 1; 5' ss G4 overhang 27 nt; strand 2 5' TTT overhang.

The target of data set [7] is T1, GST-WRNIP1. Briefly: fluorescence anisotropy; Hill n 0.96; Anisotropy: 10 nM DNA, 50 mM Tris-HCl pH 7.5, 90 mM KCl, 5 mM EDTA, with or without 1 mM ATP and 1.25 mM MgCl2, 25 C; EMSA: 50 nM DNA, 50 mM Tris-HCl pH 7.5, 150 mM KCl, 15 min 25 C, 6% native gel; DNA folded in 25 mM Tris-HCl pH 7.5, 50 mM KCl. Conditions: protein: recombinant; (GST fusion); label: 5' FITC.

With TGAGGGTGGGTAGGGTGGGTGCGTCTGCGGCTGGCTCGAGGC (structured_DNA) [MYC G4 ss (Myc2345)], the values for the Kd in data set [1], in data set [2] and in data set [3] were 175 ± 43 nM, 183 ± 52 nM and 184 ± 36 nM, respectively.

B1: MYC G4 partial duplex (structured_DNA)
DNA 1: TGAGGGTGGGTAGGGTGGGTGCGTCTGCGGCTGGCTCGAGGC
DNA 2: TTTGCCTCGAGCCAGCCGCAGACG
On to B1, for which the Kd in data set [4] came to 108 ± 45 nM.
With AAGGGTGGGTGTAAGTGTGGGTGGGTGCGTCTGCGGCTGGCTCGAGGC (structured_DNA) [CEB G4 ss (CEB25)], the Kd in data set [5] amounted to 65 ± 6 nM.

B2: CEB G4 partial duplex (structured_DNA)
DNA 1: AAGGGTGGGTGTAAGTGTGGGTGGGTGCGTCTGCGGCTGGCTCGAGGC
DNA 2: TTTGCCTCGAGCCAGCCGCAGACG
Regarding B2, the Kd in data set [6] stood at 221 ± 44 nM.
With ACTCCCACCCATCCCACCCACGCAGACGCCGACCGAGCTCCG (ssDNA) [C-rich control], the Kd in data set [7] is 3500 ± 511 nM.
